Marks after values point to notes of the source that are not given here.
What was measured:
[1] = system: BT549 cells; experiment: FACS analysis on antigen negative BT549 breast cancer cells (control); type: binding, human; details: normalized to isotype control (pK16)
[2] = target: T1, TIM-1 protein on human CD4+ Th2 cells (Homo sapiens, UniProt Q96D42); experiment: FACS analysis of expression of TIM-1 protein on human CD4+ Th2 cells; type: binding
T1 construct: a major fraction of polarized human Th2 and Th1 cells do express TIM-1; endogenous in cells; host or cells: primary human CD4+ T cells from blood
T1 sequence (Q96D42 21-364): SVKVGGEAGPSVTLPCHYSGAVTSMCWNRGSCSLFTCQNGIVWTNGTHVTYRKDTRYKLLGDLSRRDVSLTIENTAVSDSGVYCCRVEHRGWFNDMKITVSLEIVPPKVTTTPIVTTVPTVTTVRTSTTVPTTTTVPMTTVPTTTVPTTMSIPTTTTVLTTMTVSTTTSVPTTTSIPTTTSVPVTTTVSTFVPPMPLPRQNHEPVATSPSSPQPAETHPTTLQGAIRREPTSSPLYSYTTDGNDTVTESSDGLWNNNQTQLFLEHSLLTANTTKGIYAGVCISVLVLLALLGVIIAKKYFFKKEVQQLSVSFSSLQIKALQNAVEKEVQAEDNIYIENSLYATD
Procedure: Mononuclear cells were isolated from human blood diluted 1:1 in PBS, by spinning over Ficoll for 20 minutes. The mononuclear cells were washed twice at 1000 rpm with PBS-Mg and Ca and re-suspended in Miltenyi buffer (Miltenyi Biotec Inc., Auburn, Calif.); PBS, 0.5% BSA, 5 mM EDTA at approximately 10^8 cells/mL. 20 μL of CD4 Miltenyi beads were added per 107 cells and incubated for 15 minutes on ice. Cells were washed with a 10-fold excess volume of Miltenyi buffer. A positive selection column (type VS+) (Miltenyi Biotec Inc., Auburn, Calif.) was washed with 3 mL of Miltenyi buffer. The pelleted cells were re-suspended at 10^8 cells per mL of Miltenyi buffer and applied to the washed VS column. The column was then washed three times with 3 mL of Miltenyi buffer. Following this, the VS column was removed from the magnetic field and CD4+ cells were eluted from the column with 5 mL of Miltenyi buffer. […]
FACS analysis was performed to determine the expression of TIM-1 protein as detected with five anti-TIM-1 monoclonal antibodies (2.59.2, 1.29, 2.70.2, 2.56.2, 2.45.1) on human and mouse resting CD4+ T cells, as well as human activated and human polarized CD4+ T cells.
Data is reported as the geometric mean of the fluorescence intensity.

[3] = target: T2, TIM-1 antigen (Homo sapiens, UniProt Q96D42, DEL158-162/L179P); experiment: Epitope binning (antigen binding competition, Luminex)
T2 construct: V5; His; made in house; host or cells: baculovirus expression system (pMelV5His vector / pBlueBac)
T2 sequence (Q96D42 with tags, fused parts or gaps DEL158-162/L179P): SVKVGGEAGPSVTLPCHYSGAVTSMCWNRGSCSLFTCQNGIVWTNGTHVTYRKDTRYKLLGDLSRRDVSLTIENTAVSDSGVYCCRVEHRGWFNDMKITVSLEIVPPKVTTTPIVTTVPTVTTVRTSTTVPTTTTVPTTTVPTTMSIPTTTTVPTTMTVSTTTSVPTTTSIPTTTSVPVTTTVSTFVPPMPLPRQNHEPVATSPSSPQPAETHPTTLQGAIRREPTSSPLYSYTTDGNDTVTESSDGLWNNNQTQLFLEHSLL
Procedure: Certain antibodies, described herein were “binned” in accordance with the protocol described in U.S. Patent Application Publication No. 20030157730, published on Aug. 21, 2003, entitled “Antibody Categorization Based on Binding Characteristics.”
MxhIgG conjugated beads were prepared for coupling to primary antibody. The volume of supernatant needed was calculated using the following formula: (n+10)×50 μL (where n=total number of samples on plate). Where the concentration was known, 0.5 μg/mL was used. Bead stock was gently vortexed, then diluted in supernatant to a concentration of 2500 of each bead per well or 0.5×10^5/mL and incubated on a shaker in the dark at room temperature overnight, or 2 hours if at a known concentration of 0.5 μg/mL. Following aspiration, 50 μL of each bead was added to each well of a filter plate, then washed once by adding 100 μL/well wash buffer and aspirating. Antigen and controls were added to the filter plate 50 μL/well then covered and allowed to incubate in the dark for 1 hour on shaker. Following a wash step, a secondary unknown antibody was added at 50 μL/well using the same dilution (or concentration if known) as used for the primary antibody. The plates were then incubated in the dark for 2 hours at room temperature on shaker followed by a wash step. Next, 50 μL/well biotinylated mxhIgG diluted 1:500 was added and allowed to incubate in the dark for 1 hour on shaker at room temperature. Following a wash step, 50 μL/well Streptavidin-PE was added at 1:1000 and allowed to incubate in the dark for 15 minutes on shaker at room temperature. Following a wash step, each well was resuspended in 80 μL blocking buffer and read using a Luminex system.

[4] = system: Th2 cells; experiment: Cytokine assay (ELISA of culture supernatants), CD4+ Th2 cells; type: cell-based, human; details: for IL-5 production, percent of cytokine production detected using the control PK16.3 mAb / IL-10 production, percent of cytokine production detected using the control PK16.3 mAb / IL-13 production, percent of cytokine production detected using the control PK16.3 mAb / IL-4 production, percent of cytokine production detected using the control PK16.3 mAb: Th2
Procedure: (§1) IL-4, IL-5, IL-10, IL-13, and IFNγ production levels by activated Th1 and Th2 cell were measured in culture supernatants treated with anti-TIM-1 antibodies using standard ELISA protocols. Cytokine production by Th1 or Th2 cells treated with anti-TIM-1 antibodies was compared to Th1 or Th2 cells treated with the control PK16.3 antibody. In addition, the following samples were run in parallel as internal controls: i) anti-CD3 treated Th1 or Th2 cells, where no cytokine production is expected because of the absence of co-stimulation, ii) anti-CD3/anti-CD28 stimulated Th1 or Th2 cells, expected to show detectable cytokine production, and iii) untreated Th1 or Th2 cells. CD4+ T cells were isolated as described in the Example above. Isolated CD4+ lymphocytes were then spun down and re-suspended in DMEM 5% FCS plus additives (non-essential amino acids, sodium pyruvate, mercaptoethanol, glutamine, penicillin, and streptomycin) at 10^6 cells/mL. Falcon 6-well non-tissue culture treated plates were pre-coated overnight with anti-CD3 (2 μg/mL) and anti-CD28 (10 μg/mL) (600 μL total in Dulbecco's PBS) overnight at 4° C. The plates were washed with PBS and CD4+ lymphocytes were suspended at 500,000 cells/mL in Th2 medium: DMEM+10% FCS plus supplements and IL-2 5 ng/mL, IL-4 5 ng/mL, anti-IFN gamma 5 μg/mL and cells were stimulated 4-6 days at 37° C. and 5% CO2 in the presence of 5 μg/mL of mAb recognizing the TIM-1 protein or isotype matched negative control mAb PK16.3.
(§2) In another set of experiments, CD4+ lymphocytes were suspended at 500,000 cells/mL in Th1 medium: DMEM+10% FCS plus supplements and IL-2 5 ng/mL, IL12 5 ng/mL, anti-IL-4 5 μg/mL and stimulated 4-6 days 37° C. temp and 5% CO2 in the presence of 5 μg/mL TIM-1 or isotype matched control mAb PK16.3. Cells were washed two times in DMEM and resuspended in DMEM, 10% FCS plus supplements and 2 ng/mL IL-2 (500,000 cells/mL) in the presence of 5 μg/mL TIM-1 mAb or control PK16.3 mAb and cultured (rested) for 4-6 days at 37° C. and 5% CO2. The process of activation and resting was repeated at least once more as described above with the addition of anti-CD95L (anti-FAS ligand) to prevent FAS-mediated apoptosis of cells. Falcon 96-well non-tissue culture treated plates pre-coated overnight with anti-CD3 mAb at 500 ng/mL and costimulatory molecule B7H2 (B7 homolog 2) 5 μg/mL were washed and 100 μL of TIM-1 mAb treated Th1 or Th2 (200,000 cells) added per well. After 3 days of culture, the supernatants were removed and IL-4, IL-5, IL-10, IL-13, and IFNγ […]levels were determined by ELISA (Pharmingen, San Diego, Calif. or R&D Systems, Minneapolis, Minn.).
Each experiment used purified CD4+ cells isolated from whole blood samples from two independent donors. Cytokine production is reported as the percent of cytokine production detected using the control PK16.3 mAb. The anti-TIM-1 mAb used in each experiment is specified along the bottom row.

[5] = system: Th1 cells; experiment: Cytokine assay (ELISA of culture supernatants), CD4+ Th1 cells; type: cell-based, human; details: 5 μg/mL mAb
Procedure: as §1, §2

[6] = 5 μg/mL mAb, compared to control PK16.3 mAb
[7] = TH2, Donor 12 + 17, control PK16.3 mAb, 5 μg/mL mAb
[8] = TH1, Donor 12 + 17, control PK16.3 mAb

B1: mAb 1.29: fully human IgG2 kappa anti-TIM-1 monoclonal antibody; heavy chain SEQ ID NO: 2, light chain SEQ ID NO: 4 (antibody, listed as Homo Sapiens, V domains shown)
VH: QVQLQESGPGLVKPSETLSLTCTVSGGSVSSGGYYWSWIRQPPGKGLEWIGFIYYTGSTNYNPSLKSRVSISVDTSKNQFSLKLSSVTAADAAVYYCARDYDWSFHFDYWGQGTLVTVSSA
VL: DIQMTQSPSSLSASIGDRVTITCRASQGIRNDLGWYQQKPGKAPKRLIYAASSLQSGVPSRFSGSGSGTEFTLTISSLQPEDFATYYCLQHNSYPLTFGGGTKVEIKR
With B1 the “Geo Mean Ratio (relative to negative control) BT549” value [1] was 1.2, the “Geometric mean of fluorescence intensity” value ([2]; Polarized Human CD4+ Th2 Cells) was 22.3 and the “Geometric mean of fluorescence intensity” value ([2]; Resting Human CD4+ T cells) was 4.7. For the same molecule, the BIN ([3]; Table 8) was 1, the Bin ([3]; Table 9) was 1 and the “IL-5 release from Th2 cells” value [4, 6] was “significantly inhibited”. The “IL-10 release from Th2 cells” value [4, 6] was “significantly inhibited”, the “IL-13 release from Th2 cells” value [4, 6] was “significantly inhibited” and the “IL-4 Percentage of Control Antibody” value [4, 7] was 112.54 Percentage of Control Antibody. The “IL-5 Percentage of Control Antibody” value [4, 7] was 80.26 Percentage of Control Antibody, the “IL-10 Percentage of Control Antibody” value [4, 7] was 44.45 * Percentage of Control Antibody and the “IL-13 Percentage of Control Antibody” value [4, 7] was 48.91 ** Percentage of Control Antibody. For the same molecule, the “INF γ Percentage of Control Antibody” value [4, 7] was 112.54 Percentage of Control Antibody, the “IL-5 production, percent of cytokine production detected using the control PK16.3 mAb” value (shortened to “IL-5 production, percent”) ([4]; Donor ID 12) was 2% and the “IL-10 production, percent of cytokine production detected using the control PK16.3 mAb” value (from here on “IL-10 production, percent”) ([4]; Donor ID 12) was 109%. For the same molecule, the “IL-13 production, percent of cytokine production detected using the control PK16.3 mAb” value (from here on “IL-13 production, percent”) ([4]; Donor ID 12) was 91%, the “IL-4 production, percent of cytokine production detected using the control PK16.3 mAb” value ([4]; Donor ID 12 + 14) was 626% and the “IL-5 production, percent” value ([4]; Donor ID 12 + 14) was 5%. For the same molecule, the “IL-10 production, percent” value ([4]; Donor ID 12 + 14) was 83%, the “IL-4 production, percent of cytokine production detected using the control PK16.3 mAb” value ([4]; Donor ID 13 + 14) was 130% and the “IL-5 production, percent” value ([4]; Donor ID 13 + 14) was 122%. For the same molecule, the “IL-10 production, percent” value ([4]; Donor ID 13 + 14) was 19%, the “IL-13 production, percent” value ([4]; Donor ID 13 + 14) was 17% and the “IL-5 production, percent” value ([4]; Donor ID 14) was 67%. For the same molecule, the “IL-10 production, percent” value ([4]; Donor ID 14) was 45%, the “IL-13 production, percent” value ([4]; Donor ID 14) was 100% and the “block of Th2 cytokines across donor groups” value ([4]; multiple experiments with different donors) was “reproducibly block one or more of the Th2 cytokines”. For the same molecule, the “IL-10 release from Th1 cells” value ([5]; compared to control PK16.3 mAb) was “significantly inhibited”, the “IL-13 release from Th1 cells” value ([5]; compared to control PK16.3 mAb) was “significantly inhibited” and the “IL-4 Percentage of Control Antibody” value [5, 8] was 81.05 Percentage of Control Antibody. For the same molecule, the “IL-5 Percentage of Control Antibody” value [5, 8] was 94.63 Percentage of Control Antibody, the “IL-10 Percentage of Control Antibody” value [5, 8] was 60.77 ** Percentage of Control Antibody and the “IL-13 Percentage of Control Antibody” value [5, 8] was 73.95 *** Percentage of Control Antibody. For the same molecule, the “INF γ Percentage of Control Antibody” value [5, 8] was 93.51 Percentage of Control Antibody.

— patent publication US20170267750A1, “Method of Treating Ovarian and Renal Cancer Using Antibodies Against T Cell Immunoglobulin Domain and Mucin Domain 1 (TIM-1) Antigen” (Celldex Therapeutics, Inc., priority 2005, published 2017)
